Each block holds one molecule with its values, some of them ahead of it.
Experiments:
[1] = biological target: T1, ACKR4 C-terminally fused to SmBiT (UniProt Q9NPB9)
T1 sequence: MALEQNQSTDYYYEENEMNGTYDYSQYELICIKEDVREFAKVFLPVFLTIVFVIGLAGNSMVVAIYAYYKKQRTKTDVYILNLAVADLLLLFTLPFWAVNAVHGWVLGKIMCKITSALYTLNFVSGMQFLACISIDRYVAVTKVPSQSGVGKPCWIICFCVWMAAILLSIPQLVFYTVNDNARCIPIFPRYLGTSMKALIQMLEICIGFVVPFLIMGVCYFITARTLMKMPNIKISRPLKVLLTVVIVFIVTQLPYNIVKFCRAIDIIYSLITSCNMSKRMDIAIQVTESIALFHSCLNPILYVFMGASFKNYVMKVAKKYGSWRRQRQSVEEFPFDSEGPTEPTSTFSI

[2] = biological target: CCR7 C-terminally fused to SmBiT (human) (UniProt P32248)
[3] = biological target: CCR7 C-terminally fused to SmBiT (human) (UniProt P32248); remark: listed apart in the source
[4] = biological target: CCR7 C-terminally fused to SmBiT (human) (UniProt P32248); remark: listed apart in the source
[5] = biological target: T2, CCR7 C-terminally fused to SmBiT (human, UniProt P32248 25-378); test: cell-based or functional assay
T2 sequence (looked up): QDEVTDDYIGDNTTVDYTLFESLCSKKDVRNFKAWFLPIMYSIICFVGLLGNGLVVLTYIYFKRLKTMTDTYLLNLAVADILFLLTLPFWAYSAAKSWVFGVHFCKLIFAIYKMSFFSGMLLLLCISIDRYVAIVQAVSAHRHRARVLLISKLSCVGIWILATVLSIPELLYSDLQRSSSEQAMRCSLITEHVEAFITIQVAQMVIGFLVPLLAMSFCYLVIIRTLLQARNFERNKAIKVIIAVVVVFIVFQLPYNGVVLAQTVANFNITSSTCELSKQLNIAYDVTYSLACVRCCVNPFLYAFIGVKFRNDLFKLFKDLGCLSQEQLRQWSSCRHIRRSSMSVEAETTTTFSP

[6] = biological target: T3, ACKR4 C-terminally fused to SmBiT (UniProt Q9NPB9 1-350); test: cell-based or functional assay
T3 sequence (looked up): T1 sequence

[7] = biological target: T4, CCL21WT (full-length human CCL21, residues 1–111) (human), O00585; test: NMR titration; conditions: remark: other sources report otherwise
T4 chain: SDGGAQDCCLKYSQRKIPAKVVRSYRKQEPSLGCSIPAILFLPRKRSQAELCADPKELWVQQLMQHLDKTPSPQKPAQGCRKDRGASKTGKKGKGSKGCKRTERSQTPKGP

[8] = biological target: T4, CCL21WT (full-length human CCL21, …); test: NMR titration; conditions: remark: other sources report otherwise

Molecule: CCL21 1–91 C80A (from UniProt O00585 24-114) (domain or fragment)
β-arrestin 1 recruitment to ACKR4, EC50 [1]: 0.005 µM
cAMP inhibition assay, dose–response from 10 pM to 100 nM, EC50 [2]: 7 nM
β-arrestin 1 recruitment to CCR7, EC50 [2]: 0.06 µM
calcium flux in CHEM-1 CCR7+ cells, EC50 [3]: 0.0073 µM

Molecule: CCL21 1–101 (from UniProt O00585 24-124) (domain or fragment)
β-arrestin 1 recruitment to ACKR4, EC50 [1]: 0.03 µM
β-arrestin 1 recruitment to CCR7, EC50 [2]: 0.1 µM
calcium flux in CHEM-1 CCR7+ cells, EC50 [3]: 0.0215 µM

Molecule: CCL21 C80AC99A (from UniProt O00585 24-134) (ligand)
calcium mobilization in CHEM-1 CCR7+ cells, EC50 [4]: 0.0253 µM

Further lines, results first:

calcium mobilization in CHEM-1 CCR7+ cells, EC50 [5]: 0.00585 µM
β-arrestin 1 recruitment to CCR7 (panel with the truncation variants), EC50 [5]: ~0.06 µM
β-arrestin 1 recruitment to ACKR4 (panel with the truncation variants), EC50 [6]: ~0.005 µM
B1: CCL21trunc (CCL21 residues 1–79) (domain or fragment, human, UniProt O00585 24-102, looked up)
chain: SDGGAQDCCLKYSQRKIPAKVVRSYRKQEPSLGCSIPAILFLPRKRSQAELCADPKELWVQQLMQHLDKTPSPQKPAQG

calcium mobilization in CHEM-1 CCR7+ cells, EC50 [5]: 0.0334 µM
β-arrestin 1 recruitment to CCR7 (panel with the truncation variants), EC50 [5]: ~0.1 µM
β-arrestin 1 recruitment to ACKR4 (panel with the truncation variants), EC50 [6]: ~0.03 µM
Kd [7]: 2000 to 10000 µM
Kd [8]: > 1000 µM
B2: CCL21WT (full-length human CCL21, residues 1–111) (ligand, UniProt O00585 24-134, looked up)
chain: T4 chain

Source: PMC7307649 (Biochemistry, 2020)
